Consider one molecule from patent publication US20180339042A1 (published 2018).

This assay addresses T1, human GITR, membrane bound (human, UniProt Q9Y5U5 26-241).
T1 sequence: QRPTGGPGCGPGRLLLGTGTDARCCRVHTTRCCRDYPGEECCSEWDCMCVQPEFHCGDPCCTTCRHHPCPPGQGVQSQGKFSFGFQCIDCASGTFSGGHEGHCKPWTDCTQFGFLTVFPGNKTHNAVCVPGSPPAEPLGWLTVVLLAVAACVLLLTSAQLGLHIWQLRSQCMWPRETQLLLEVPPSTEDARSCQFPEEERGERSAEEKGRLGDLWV
As to the kind of experiment: cell-based or functional assay.

B1: 28F3 (antibody, human IgG2, kappa)
heavy: QVQLVESGGGVVQPGRSLRLSCAASGFTFSSYGMHWVRQAPGKGLEWVAVIWYEGSNKYYADSVKGRFTISRDNSKNTLYLQMNSLRAEDTAVYYCARGGSMVRGDYYYGMDVWGQGTTVTVSSASTKGPSVFPLAPCSRSTSESTAALGCLVKDYFPEPVTVSWNSGALTSGVHTFPAVLQSSGLYSLSSVVTVPSSNFGTQTYTCNVDHKPSNTKVDKTVERKCCVECPPCPAPPVAGPSVFLFPPKPKDTLMISRTPEVTCVVVDVSHEDPEVQFNWYVDGVEVHNAKTKPREEQFNSTFRVVSVLTVVHQDWLNGKEYKCKVSNKGLPAPIEKTISKTKGQPREPQVYTLPPSREEMTKNQVSLTCLVKGFYPSDIAVEWESNGQPENNYKTTPPMLDSDGSFFLYSKLTVDKSRWQQGNVFSCSVMHEALHNHYTQKSLSLSPGK
light: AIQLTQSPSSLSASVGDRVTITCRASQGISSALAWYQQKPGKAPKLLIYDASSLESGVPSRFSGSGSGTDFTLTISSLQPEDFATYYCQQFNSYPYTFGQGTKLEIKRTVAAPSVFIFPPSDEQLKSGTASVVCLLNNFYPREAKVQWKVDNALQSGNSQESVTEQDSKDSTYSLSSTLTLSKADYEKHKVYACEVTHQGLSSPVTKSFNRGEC
On to B1, for which the “NFKB signaling (phospho-p65), CD4+ T cells, Emax (%)” value amounted to 69% and the “NFKB signaling (phospho-p65), CD8+ T cells, Emax (%)” value stood at 85%.
